One assay concerns the target T1, Vac8[40–578] (S. cerevisiae, UniProt P39968 40-578).
T1 sequence (looked up): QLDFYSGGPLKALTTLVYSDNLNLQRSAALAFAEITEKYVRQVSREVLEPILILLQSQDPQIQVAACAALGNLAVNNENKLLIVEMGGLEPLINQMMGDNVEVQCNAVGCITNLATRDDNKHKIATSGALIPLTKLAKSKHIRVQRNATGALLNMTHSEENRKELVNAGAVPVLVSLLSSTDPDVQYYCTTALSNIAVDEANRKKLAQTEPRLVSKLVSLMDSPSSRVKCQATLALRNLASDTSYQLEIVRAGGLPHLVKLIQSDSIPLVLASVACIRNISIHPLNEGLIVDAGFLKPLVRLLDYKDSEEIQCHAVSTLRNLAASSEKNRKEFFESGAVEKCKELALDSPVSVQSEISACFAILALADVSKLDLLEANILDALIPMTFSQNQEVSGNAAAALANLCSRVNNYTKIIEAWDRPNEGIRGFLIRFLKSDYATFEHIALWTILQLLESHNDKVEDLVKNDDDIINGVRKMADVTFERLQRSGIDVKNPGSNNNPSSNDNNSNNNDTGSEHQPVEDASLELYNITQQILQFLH
The assay can be described thus: SAXS.

The target in a further assay is T2, Vac8[40–515] (S. cerevisiae, UniProt P39968 40-515).
T2 sequence (looked up): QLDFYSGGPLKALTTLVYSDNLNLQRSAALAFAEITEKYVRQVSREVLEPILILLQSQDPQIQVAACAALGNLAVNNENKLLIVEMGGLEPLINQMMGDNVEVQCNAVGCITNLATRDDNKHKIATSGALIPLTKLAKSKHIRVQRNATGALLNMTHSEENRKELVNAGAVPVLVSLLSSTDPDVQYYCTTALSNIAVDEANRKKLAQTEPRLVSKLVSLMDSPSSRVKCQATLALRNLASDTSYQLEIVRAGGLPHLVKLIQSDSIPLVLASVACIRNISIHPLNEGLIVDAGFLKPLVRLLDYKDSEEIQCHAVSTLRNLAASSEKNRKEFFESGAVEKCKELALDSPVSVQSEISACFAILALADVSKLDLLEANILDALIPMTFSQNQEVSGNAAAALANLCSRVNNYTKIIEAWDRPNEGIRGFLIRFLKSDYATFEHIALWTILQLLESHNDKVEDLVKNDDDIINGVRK
The assay is described as follows: SEC.

Another assay deals with T3, full-length Vac8 (S. cerevisiae, UniProt P39968 1-578).
T3 sequence (looked up): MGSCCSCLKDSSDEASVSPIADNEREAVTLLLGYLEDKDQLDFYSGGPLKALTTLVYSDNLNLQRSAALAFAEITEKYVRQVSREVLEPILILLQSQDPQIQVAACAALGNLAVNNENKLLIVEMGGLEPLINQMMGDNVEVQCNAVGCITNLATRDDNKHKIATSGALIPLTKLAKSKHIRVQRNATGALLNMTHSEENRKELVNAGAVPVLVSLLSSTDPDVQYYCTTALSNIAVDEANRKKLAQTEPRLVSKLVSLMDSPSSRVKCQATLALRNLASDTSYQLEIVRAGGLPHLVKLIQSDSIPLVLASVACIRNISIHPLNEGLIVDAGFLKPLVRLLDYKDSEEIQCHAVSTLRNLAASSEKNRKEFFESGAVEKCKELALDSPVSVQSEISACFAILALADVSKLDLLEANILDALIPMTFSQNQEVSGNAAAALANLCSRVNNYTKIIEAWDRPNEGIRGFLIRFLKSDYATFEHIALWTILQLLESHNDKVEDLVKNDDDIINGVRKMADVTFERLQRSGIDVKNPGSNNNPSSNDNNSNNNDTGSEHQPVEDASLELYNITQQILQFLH
The assay is described as follows: ITC.

For assay [1], the target named is T4, Vac8[Δ19–33] (full-length Vac8 lacking the H1 helix, residues 19–33) (S. cerevisiae, UniProt P39968 1-578, Δ19–33).
T4 sequence (looked up): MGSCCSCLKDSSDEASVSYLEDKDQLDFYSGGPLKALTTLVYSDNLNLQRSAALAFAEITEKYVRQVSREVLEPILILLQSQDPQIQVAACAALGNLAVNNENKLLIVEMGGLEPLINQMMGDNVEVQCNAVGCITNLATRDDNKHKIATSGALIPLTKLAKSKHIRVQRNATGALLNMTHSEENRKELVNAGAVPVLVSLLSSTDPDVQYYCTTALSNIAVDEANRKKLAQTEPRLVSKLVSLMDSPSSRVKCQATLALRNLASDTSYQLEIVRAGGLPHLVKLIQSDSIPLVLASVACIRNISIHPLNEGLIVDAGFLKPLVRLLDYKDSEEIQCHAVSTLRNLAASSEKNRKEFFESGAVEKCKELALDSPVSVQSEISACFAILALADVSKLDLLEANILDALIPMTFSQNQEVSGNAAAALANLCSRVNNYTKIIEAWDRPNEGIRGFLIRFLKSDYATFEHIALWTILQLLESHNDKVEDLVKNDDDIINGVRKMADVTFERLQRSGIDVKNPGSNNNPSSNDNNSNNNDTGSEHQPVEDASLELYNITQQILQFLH
The assay is described as follows: ITC.

B1: tAtg13 (Atg13 construct comprising residues 567–695) (domain or fragment, S. cerevisiae, UniProt Q06628 567-695, looked up)
chain: GGNSSTSALNSRRNSLDKSSNKQGMSGLPPIFGGESTSYHHDNKIQKYNQLGVEEDDDDENDRLLNQMGNSATKFKSSISPRSIDSISSSFIKSRIPIRQPYHYSQPTTAPFQAQAKFHKPANKLIDNG
Consider B1, for which the binding result in the assay with Vac8[40–578], in the assay with Vac8[40–515] and with full-length Vac8 was “binds” in each case. The same molecule returned a dissociation constant (Kd) in assay [1] of 1460 nM.

Source of the values: publication PMC7469494 (Autophagy, 2019).
